Experimental data as given in the supplement of paper PMC10567573.

B1: SEC22B (parent)
chain: AKQLFRKLNEQSPTRCTLEAGAMT
B2: MCOLN1 (parent)
chain: EEEDLRRRLKYFFMSPCDKFRAKG

Variants of: B1
Experiment: protein stability index of a GFP-peptide fusion (GPS, HEK-293T) (PSI 1-6); higher = more stable
Details: c terminus: a fixed tail appended
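Also: lentivirally expressed fusions sorted by FACS into six bins by GFP to DsRed ratio, PSI derived from sequencing read proportions per bin multiplied by bin number.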

Protein stability index, by site and new letter:
S12: K 1.84; G 2.14; A 1.88; F 2.05; D 3.51; Y 2.43; E 3.46; M 2.37; H 2.13; L 2.84; P 1.68; R 1.4; W 1.77; T 1.96; V 1.45; Q 2.16; I 1.86; C 2.87; N 1.93
K7: P 3.33; Y 1.52; T 2.54; Q 2.25; V 2.47; R 2; S 2.31; N 2.47
T17: N 2.22; E 3.23; M 2.46; Q 2.4; K 1.94; S 1.81; C 2.4; Y 1.61; V 2.18; L 2.13; D 3.48; W 2.28; I 1.86; G 1.69; R 2.69; A 1.81; H 2; P 2.77; F 1.6
A20: P 2.65; K 3.02; H 2.47; S 2.99; T 2.96; G 3.5; L 2.27; I 2.27; C 1.64; W 1.59; Y 2.01; D 3.07; F 1.34; Q 2.87; N 3.08; E 3.22; M 3.4; V 2.49; R 2.77
P13: A 2.48; R 2.73; D 3.06; Q 1.98; T 2.14; S 1.58; K 1.88; N 1.86; I 1.61; V 2.46; G 1.96; E 2.81; C 1.53; H 1.7; L 2.08; Y 1; F 1.77; M 1.82
L8: K 3.07; W 3.19; E 3.13; I 2.1; F 2; Y 1.91; M 2.55; T 2.89; N 2.49; S 2.35; C 2.35; P 2.82; G 2.49; A 2.91; D 3.66; R 3.84; H 2.64; Q 3.08; V 3.09
R15: H 3.44; V 3.01; W 1.97; Y 2.82; N 3.19; K 3.2; E 2.81; P 3; M 2.71; I 2.76; T 2.67; G 3.15; F 2.41; S 2.44; C 2.8; Q 3.55; A 3.03; D 4.3; L 3.03
N9: K 2.58; H 1.84; R 2.88; C 1.92; G 2.47; F 2.57; D 2.98; W 3.44; L 1.35; Q 2.5; Y 2.6; I 2.13; S 1.8; T 1.97; P 2.59; A 1.95; M 1.85; E 3.56; V 1.39
L18: F 2.09; W 1.94; A 3.25; V 2.78; K 2.7; E 3.47; Q 2.71; M 2.16; G 2.48; I 2.35; Y 1.89; C 2.66; R 2.46; S 3.26; N 3.17; D 3.92; H 2.64; T 2.84; P 3.24
A22: E 2.53; S 2.27; K 1.79; G 2.35; W 3.6; C 2.07; L 1.58; M 2.07; Y 2.41; I 2.17; V 1.89; P 2.25; T 1.84; H 1.82; R 2.14; F 1.49; D 2.33; Q 1.88; N 2.8
G21: I 1.88; E 2.56; D 2.99; A 1.96; Q 1.68; H 1.94; W 1.61; F 2.42; L 2.12; P 2.38; V 4.07; N 2.18; R 2.4; M 1.34; T 1.86; K 2.11; S 2.51; Y 1.95; C 2.58
E10: W 1.56; G 2.13; V 1.81; N 1.95; A 1.88; D 2.18; S 2.89; F 2.99; P 1.34; T 2.31; H 2; Y 3.1; I 2.7; R 2.22; L 1.08; M 2.72; Q 1.54; C 1.41; K 1.65
T14: L 1.94; E 3.53; F 1.63; H 1.81; G 1.74; D 3.27; A 1.68; Q 1.86; P 2.35; Y 1.99; W 2.01; V 2.06; I 2.55; R 2.38; K 2.41; S 1.89; C 3.02; M 1.79; N 1.98
C16: W 2.52; V 2.53; N 3.74; S 3.66; I 3.12; D 3.93; H 3.47; M 3.08; F 2.15; A 3.07; G 3.93; Q 3.47; T 3.64; L 3.19; K 2.95; E 3.85; Y 2.79; P 3.96; R 3.27
M23: L 2.47; E 2.59; P 2.7; H 2.25; Q 2.81; I 2.04; S 2.7; R 2.26; F 1.72; G 2.85; N 2.61; W 2.19; D 2.77; C 2.18; V 1.81; T 2.22; A 2.09; K 2.45; Y 2.37
T24: E 2.09; F 1.99; I 1.92; P 1.72; Q 2.39; D 2.39; M 2.59; L 2.13; K 2.29; S 2.19; N 1.98; V 1.99; G 2.49; C 2.26; Y 2.36; A 1.82; W 2.19; H 2.06; R 2.14
Q11: Y 1.35; R 1.41; W 1.98; C 2.13; G 2.14; S 2.1; F 1.65; A 1.77; T 1.82; K 1.96; I 1.71; M 2.26; E 2.85; L 1.38; H 1.99; D 2.44; N 2.22; V 1.48; P 2.09
E19: V 1.75; Y 2.18; S 2.94; M 2.15; P 2.99; R 2.49; A 2.28; H 2.46; D 3.05; G 2.12; N 2.95; W 2.22; I 1.64; T 2.56; K 2.47; L 2.35; Q 2.87; F 1.41; C 2.52

Variants of: B2
Experiment: as above
Details: c terminus: a fixed tail appended

Protein stability index: each site, then its substitutions
E1: F 2.29; C 3.42; D 2.96; A 2.53
